# Reference: patent publication US20260256915A1 (published 2026)
# Where a chain is given by its changes, count along the chain named.
# T1: PRAME peptide on HLA-A*02:01 (human)
# T1 peptide: SLLQHLIGL
# B1: nwTCR-3028 (TCR, V domains shown)
# Valpha: SQQGEEDPQALSIQEGENATMNCSYKTSINNLQWYRQNSGRGLVHLILIRSNEREKHSGRLRVTLDTSKKSSSLLITASRAADTASYFCATDVKSSYKLIFGSGTRLLVRP
# Vbeta: AAGVIQSPRHLIKEKRETATLKCYPIPRHDTVYWYQQGPGQDPQFLISFYEKMQSDKGSIPDRFSAQQFSDYHSELNMSSLELGDSALYFCASSLGLLGNEQFFGPGTRLTVL
# B2: nwTCR-3125 (TCR, V domains shown)
# Valpha: QKEVEQNSGPLSVPEGAIASLNCTYSDRVSQSFFWYRQYSGKSPELIMSIYSNGDKEDGRFTAQLNKASQYVSLLIRDSQPSDSATYLCALVSGTYKYIFGTGTRLKVLA
# Vbeta: DTAVSQTPKYLVTQMGNDKSIKCEQNLGHDTMYWYKQDSKKFLKIMFSYNNKELIINETVPNRFSPKSPDKAHLNLHINSLELGDSAVYFCASSPGLAYEQYFGPGTRLTVT
# B3: nwTCR-3095 (TCR, V domains shown)
# Valpha: DQQVKQNSPSLSVQEGRISILNCDYTNSMFDYFLWYKKYPAEGPTFLISISSIKDKNEDGRFTVFLNKSAKHLSLHIVPSQPGDSAVYFCAAFASDSNYQLIWGAGTKLIIKP
# Vbeta: DTAVSQTPKYLVTQMGNDKSIKCEQNLGHDTMYWYKQDSKKFLKIMFSYNNKELIINETVPNRFSPKSPDKAHLNLHINSLELGDSAVYFCASSPWTSGGNGELFFGEGSRLTVL
# B4: nwTCR-3273 (TCR, V domains shown)
# Valpha: SQELEQSPQSLIVQEGKNLTINCTSSKTLYGLYWYKQKYGEGLIFLMMLQKGGEEKSHEKITAKLDEKKQQSSLHITASQPSHAGIYLCGAVPINDYKLSFGAGTTVTVRA
# Vbeta: EAQVTQNPRYLITVTGKKLTVTCSQNMNHEYMSWYRQDPGLGLRQIYYSMNVEVTDKGDVPEGYKVSRKEKRNFPLILESPSPNQTSLYFCASSIDSGSSYNEQFFGPGTRLTVL
# B5: nwTCR-3271 (TCR, V domains shown)
# Valpha: DQQVKQNSPSLSVQEGRISILNCDYTNSMFDYFLWYKKYPAEGPTFLISISSIKDKNEDGRFTVFLNKSAKHLSLHIVPSQPGDSAVYFCAAKPDKLIFGTGTRLQVFP
# Vbeta: SAVISQKPSRDICQRGTSLTIQCQVDSQVTMMFWYRQQPGQSLTLIATANQGSEATYESGFVIDKFPISRPNLTFSTLTVSNMSPEDSSIYLCSVWGAGLAIYNEQFFGPGTRLTVL
# B6: nwTCR-3173 (TCR, V domains shown)
# Valpha: SQQGEEDPQALSIQEGENATMNCSYKTSINNLQWYRQNSGRGLVHLILIRSNEREKHSGRLRVTLDTSKKSSSLLITASRAADTASYFCATYANDYKLSFGAGTTVTVRA
# Vbeta: EAQVTQNPRYLITVTGKKLTVTCSQNMNHEYMSWYRQDPGLGLRQIYYSMNVEVTDKGDVPEGYKVSRKEKRNFPLILESPSPNQTSLYFCASSAGTGGFVGYTFGSGTRLTVV
# B7: nwTCR-3272 (TCR, V domains shown)
# Valpha: QKEVEQNSGPLSVPEGAIASLNCTYSDRGSQSFFWYRQYSGKSPELIMSIYSNGDKEDGRFTAQLNKASQYVSLLIRDSQPSDSATYLCAVPSGNMLTFGGGTRLMVKP
# Vbeta: DVKVTQSSRYLVKRTGEKVFLECVQDMDHENMFWYRQDPGLGLRLIYFSYDVKMKEKGDIPEGYSVSREKKERFSLILESASTNQTSMYLCASSSATSGSGEQYFGPGTRLTVT
# B8: nwTCR-2793 (TCR, V domains shown)
# Valpha: QKEVEQNSGPLSVPEGAIASLNCTYSDRVSQSFFWYRQYSGKSPELIMSIYSNGDKEDGRFTAQLNKASQYVSLLIRDSQPSDSATYLCAVVSSNDYKLSFGAGTTVTVRA
# Vbeta: EAQVTQNPRYLITVTGKKLTVTCSQNMNHEYMSWYRQDPGLGLRQIYYSMNVEVTDKGDVPEGYKVSRKEKRNFPLILESPSPNQTSLYFCASSPGTIGELFFGEGSRLTVL
# B9: nwTCR-2915 (TCR, V domains shown)
# Valpha: GESVGLHLPTLSVQEGDNSIINCAYSNSASDYFIWYKQESGKGPQFIIDIRSNMDKRQGQRVTVLLNKTVKHLSLQIAATQPGDSAVYFCAESYGQKLLFARGTMLKVDL
# Vbeta: B8 Vbeta with P95F, G96W, T97S, I98A
# B10: nwTCR-3274 (TCR, V domains shown)
# Valpha: QKEVEQNSGPLSVPEGAIASLNCTYSDRGSQSFFWYRQYSGKSPELIMSIYSNGDKEDGRFTAQLNKASQYVSLLIRDSQPSDSATYLCAVVSGGYNKLIFGAGTRLAVHP
# Vbeta: EPEVTQTPSHQVTQMGQEVILRCVPISNHLYFYWYRQILGQKVEFLVSFYNNEISEKSEIFDDQFSVERPDGSNFTLKIRSTKLEDSAMYFCASSEGWGGTEAFFGQGTRLTVV
# B11: nwTCR-2970 (TCR, V domains shown)
# Valpha: QQPVQSPQAVILREGEDAVINCSSSKALYSVHWYRQKHGEAPVFLMILLKGGEQKGHDKISASFNEKKQQSSLYLTASQLSYSGTYFCGTEFRNDYKLSFGAGTTVTVRA
# Vbeta: EAQVTQNPRYLITVTGKKLTVTCSQNMNHEYMSWYRQDPGLGLRQIYYSMNVEVTDKGDVPEGYKVSRKEKRNFPLILESPSPNQTSLYFCASSPGTGGYGYTFGSGTRLTVV
# B12: nwTCR-2916 (TCR, V domains shown)
# Valpha: GQQLNQSPQSMFIQEGEDVSMNCTSSSIFNTWLWYKQDPGEGPVLLIALYKAGELTSNGRLTAQFGITRKDSFLNISASIPSDVGIYFCAGQDDGGSQGNLIFGKGTKLSVKP
# Vbeta: DSGVTQTPKHLITATGQRVTLRCSPRSGDLSVYWYQQSLDQGLQFLIQYYNGEERAKGNILERFSAQQFPDLHSELNLSSLELGDSALYFCASSPWTSGGDGELFFGEGSRLTVL
# Target: T1, PRAME peptide on HLA-A*02:01
# Experiment: multimer staining
row,binding result,Binder
1,recognises,B1
2,recognises,B2
3,recognises,B3
4,recognises,B4
5,recognises,B5
6,recognises,B6
7,recognises,B7
8,recognises,B8
9,recognises,B9
10,recognises,B10
11,recognises,B11
12,recognises,B12
